This is an account of results in patent US20180244785A1 (MERRIMACK PHARMACEUTICALS, published 2018).

For one assay, the target named is T1, 6His-Fc-FGFR1c (human, UniProt P11362 141-376).
T1 construct: not shown: 6His tag and Fc as named in '6His-Fc-FGFR'
T1 sequence: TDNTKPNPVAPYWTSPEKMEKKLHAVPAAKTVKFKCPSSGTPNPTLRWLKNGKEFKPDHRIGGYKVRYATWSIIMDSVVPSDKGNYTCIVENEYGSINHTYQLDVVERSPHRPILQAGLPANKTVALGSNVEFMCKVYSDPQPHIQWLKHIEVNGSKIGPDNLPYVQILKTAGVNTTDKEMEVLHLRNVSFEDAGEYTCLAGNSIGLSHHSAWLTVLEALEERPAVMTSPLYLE
Briefly: competition ELISA, blocks 6His-Fc-FGFR1c binding to coated FGF2. How it is done: (§1) ELISA plates were coated with 50 ug/ml Heparin Sulfate (HSPG) (Sigma Aldrich) and incubated overnight at room temperature. Plates were then washed extensively with PBS containing 0.05% v/v Tween20 (PBST). Plates were then blocked with 2.5% BSA in PBST for one hour and washed extensively as before. 40-60 μL of FGF1 or FGF2 was then added to each well at 40 μg/ml and allowed to bind at room temperature for 2 hours. Plates were then washed extensively with PBST as before. Stock solutions of each 6His-Fc-FGFR (FGFR1-4) were prepared at 500 ng/ml in 2% v/v BSA-PBST and each antibody was prepared as a 2×-dilution series in 2% v/v BSA-PBST. Antibodies dilution series and 6His-Fc-FGFR1-4 were diluted in a 1:1 fashion and immediately added to the relative wells of the plate and allowed to bind for 2 hours at room temperature. Plates were washed extensively as before with PBST and the remaining fraction of bound 6His-Fc-FGFR was detected using a polyclonal-anti-His-6-HRP conjugated antibody (Abcam) for one hour at room temperature. After extensive washing with PBST, 50 μl of Pierce Chemiluminescent substrate (Thermo Fisher Scientific, Rockford, USA) was added and plates were measured on an Envision plate reader (Perkin Elmer). Raw data was background corrected and plotted using Prism software. […]
In general terms: ELISA stands for enzyme-linked immunosorbent assay.

The target in a further assay is T2, 6His-Fc-FGFR4 (human, UniProt P22455 144-369).
T2 construct: not shown: 6His tag and Fc as named in '6His-Fc-FGFR'
T2 sequence: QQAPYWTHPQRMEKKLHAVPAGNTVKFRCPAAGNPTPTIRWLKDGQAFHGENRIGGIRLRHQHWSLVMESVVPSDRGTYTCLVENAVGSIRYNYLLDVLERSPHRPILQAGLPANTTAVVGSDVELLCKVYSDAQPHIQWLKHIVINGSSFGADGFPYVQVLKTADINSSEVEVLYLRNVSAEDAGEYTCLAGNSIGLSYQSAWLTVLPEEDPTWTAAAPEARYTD
The assay is described as follows: competition ELISA, blocks 6His-Fc-FGFR4 binding to coated FGF2. How it is done: as §1

Assay [1] concerns the target T3, soluble FGFR1c receptor protein (human, UniProt P11362 141-376).
T3 sequence: T1 sequence
The assay is described as follows: BLI Octet RED96, antibody on anti-hIgG Fc tip. How it is done: (§2) Briefly, the Pall ForteBio Octet RED96 Bio-Layer Interferometry system was used to determine the specificity of anti-FGFR antibodies for FGFR1c, FGFR2c, FGFR3c, and FGFR4. The antibodies and soluble receptor proteins were prepared in PBS at a concentration of 300 nM. First, the candidate antibodies were immobilized on the surface of anti-human IgG Fc biosensor tips for 120 seconds. After immobilization, the biosensors were dipped in PBS solution for 60 seconds (baseline step) to assess assay drift, and determine loading level of antibodies. The baseline step was followed by an association step of 300 seconds wherein the binding interaction between the immobilized antibodies and soluble receptors was measured. Following the association step, the biosensors were dipped into PBS buffer for 600 seconds to measure the dissociation of the bound receptor proteins from the immobilized antibodies. Each binding response was measured and reported real time on a sensorgram trace. For data analysis, a simple 1:1 binding model was used which measures the rate of complex formation of one immobilized antibody and one soluble receptor protein.
(BLI is a label-free optical method that tracks binding on a fibre tip over time.)

Assay [2] deals with T4, soluble FGFR3c receptor protein (human, UniProt P22607 141-372).
T4 sequence: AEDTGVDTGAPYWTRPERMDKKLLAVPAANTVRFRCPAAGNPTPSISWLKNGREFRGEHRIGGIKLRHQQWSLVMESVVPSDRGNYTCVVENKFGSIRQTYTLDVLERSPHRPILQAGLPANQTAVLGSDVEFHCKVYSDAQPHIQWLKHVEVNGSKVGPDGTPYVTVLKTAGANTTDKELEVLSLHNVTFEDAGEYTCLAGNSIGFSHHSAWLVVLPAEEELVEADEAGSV
The assay is described as follows: BLI Octet RED96, antibody on anti-hIgG Fc tip. As to the method: as §2

The target of assay [3] is T5, soluble FGFR4 receptor protein (human, UniProt P22455 144-369).
T5 sequence: T2 sequence
The assay is described as follows: BLI Octet RED96, antibody on anti-hIgG Fc tip. How it is done:
as §2

For assay [4], the target named is soluble FGFR2c receptor protein (human, UniProt P21802 148-377). Briefly: BLI Octet RED96, antibody on anti-hIgG Fc tip. How it is done: as §2

Substitutions are numbered along the chain they refer to.

Chain of soluble FGFR2c receptor protein (P21802 148-377): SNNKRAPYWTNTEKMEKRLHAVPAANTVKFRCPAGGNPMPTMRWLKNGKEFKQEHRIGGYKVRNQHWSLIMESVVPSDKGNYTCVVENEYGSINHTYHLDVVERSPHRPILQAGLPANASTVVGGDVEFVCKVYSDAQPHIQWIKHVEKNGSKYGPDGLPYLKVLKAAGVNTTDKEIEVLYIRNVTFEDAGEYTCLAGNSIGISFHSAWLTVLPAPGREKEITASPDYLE

B1: Ab59 (antibody, human IgG2, kappa, V domains shown)
VH: EVQLLESGGGVVQPGRSLRLSCAASGFTFSSYAMHWVRQAPGKGLEWVAVISYDGSNKYYADSVKGRFTISRDNSKNTLSLQMNSLRVEDTAIYYCVRGAGRGYPYGPDGFDIWGQGTMVTVSS
VL: DIVMTQTPLSLSVTPGQPASISCTSSRSLLHSDGKTYVYWYVQKSGQPPQLLIYELSNRFSGVPDRFSGSGSRTDFTLKISRVEAEDVGVYYCMQYIEAPLTFGGGTKVEIKR
notes: format in the assays not spelled out
Turning to B1, the IC50 (as a rule, the concentration that gives 50% inhibition) with 6His-Fc-FGFR1c was 2.22 nM; in the assay with 6His-Fc-FGFR4, approximately 6.86 nM.

B2: Vk9 combined with the VH of Ab15 (antibody, V domains shown)
VH: B1 VH with P105T
VL: DIVMTQSPDSLAVSLGERATINCKSSQSLLHSDGKTYVYWYQQKPGQPPKLLIYELSNRFSGVPDRFSGSGSGTDFTLTISSLQAEDVAVYYCMQYIEAPLTFGGGTKVEIK
notes: captured on anti-human IgG Fc tips
With B2, the Kd – broadly, the equilibrium constant for the complex coming apart – in assay [1] amounted to 2.39 nM; in assay [2], 5.43 nM; in assay [3], 4.89 nM; in assay [4], 7.35 nM. Besides, the koff (as a rule, the first-order rate constant of dissociation) came to 0.000137 s⁻¹ in assay [1], 0.000749 s⁻¹ in assay [2], 0.000692 s⁻¹ in assay [3] and 0.00172 s⁻¹ in assay [4]. In addition, the kon (commonly the rate constant with which the complex forms) in assay [1] turned out to be 57200 M⁻¹ s⁻¹; in assay [2], 138000 M⁻¹ s⁻¹; in assay [3] it was 142000 M⁻¹ s⁻¹; in assay [4], 234000 M⁻¹ s⁻¹.

B3: Ab72 (antibody, human IgG2, kappa, V domains shown)
VH: B1 VH with R102M, Y104L, P105T
VL: B1 VL with T24K
notes: as for B1
For B3, the IC50 with 6His-Fc-FGFR1c amounted to 1.77 nM; in the assay with 6His-Fc-FGFR4, 11.6 nM.

B4: Ab63 (antibody, human IgG2, kappa, V domains shown)
VH: B1 VH with Y106H
VL: B1 VL
notes: as for B1
Consider B4, for which the figures for the IC50 in the assay with 6His-Fc-FGFR1c and in the assay with 6His-Fc-FGFR4 were 12.2 nM and 17.4 nM, respectively.

B5: Vk11 combined with the VH of Ab15 (antibody, V domains shown)
VH: B1 VH with P105T
VL: DIVMTQSPLSLPVTPGEPASISCTSSRSLLHSDGKTYVYWYLQKPGQSPQVLIYELSNRFSGVPDRFSGSGSGTDFTLKISRVEAEDVGVYYCMQYIEAPLTFGGGTKVEIK
notes: as for B2
On to B5, for which the Kd in assay [1] worked out at 7.62 nM; in assay [2] it was 11.1 nM; in assay [3], 8.47 nM; in assay [4], 10.9 nM. Further, the koff in assay [1] turned out to be 0.000327 s⁻¹; in assay [2], 0.0013 s⁻¹; in assay [3], 0.00106 s⁻¹; in assay [4] it was 0.00231 s⁻¹. The kon is 42900 M⁻¹ s⁻¹ in assay [1], 117000 M⁻¹ s⁻¹ in assay [2], 125000 M⁻¹ s⁻¹ in assay [3] and 212000 M⁻¹ s⁻¹ in assay [4].

B6: Ab56 (antibody, human IgG2, kappa, V domains shown)
VH: B1 VH with R102M, Y104L, P105T
VL: B1 VL
notes: as for B1
With B6, the IC50 with 6His-Fc-FGFR1c worked out at 3.03 nM; in the assay with 6His-Fc-FGFR4 it was 13.6 nM.

B7: Ab57 (antibody, human IgG2, kappa, V domains shown)
VH: B1 VH with R102L, Y104F
VL: B1 VL
notes: as for B1
Consider B7, for which the IC50 with 6His-Fc-FGFR1c is 2.8 nM; with 6His-Fc-FGFR4 it was 8.41 nM.

B8: Ab70 (antibody, human IgG2, kappa, V domains shown)
VH: B1 VH with R102Q
VL: B1 VL with T24K
notes: as for B1
Take B8: the IC50 in the assay with 6His-Fc-FGFR1c amounted to 4.59 nM; in the assay with 6His-Fc-FGFR4, 19.8 nM.

B9: Ab82 (antibody, human IgG2, kappa, V domains shown)
VH: B1 VH with R102L, Y104F, Y106F
VL: B1 VL with T24K
notes: as for B1
With B9, the IC50 is 2.7 nM with 6His-Fc-FGFR1c and 10.4 nM with 6His-Fc-FGFR4.

B10: Ab67 (antibody, human IgG2, kappa, V domains shown)
VH: B1 VH with Y104F
VL: B1 VL
notes: as for B1
Consider B10, for which the IC50 with 6His-Fc-FGFR1c is 5.36 nM; with 6His-Fc-FGFR4, 12.8 nM.

B11: Ab68 (antibody, human IgG2, kappa, V domains shown)
VH: B1 VH with R102L, Y106N
VL: B1 VL
notes: as for B1
Turning to B11, the IC50 turned out to be 2.96 nM with 6His-Fc-FGFR1c and 5.67 nM with 6His-Fc-FGFR4.

B12: Ab76 (antibody, human IgG2, kappa, V domains shown)
VH: B1 VH with T28D, S30A, S31G, Y104L, P105T
VL: B1 VL with T24K
notes: as for B1
In the case of B12, the IC50 turned out to be 6.3 nM with 6His-Fc-FGFR1c and 37.3 nM in the assay with 6His-Fc-FGFR4.

B13: Vk10 combined with the VH of Ab15 (antibody, V domains shown)
VH: B1 VH with P105T
VL: B2 VL with N22S, K24T, Q27R, G73R
notes: as for B2
Take B13: the Kd in assay [1] amounted to 5.33 nM; in assay [2], 5.23 nM; in assay [3] it was 4.43 nM; in assay [4] it was 6.49 nM. Besides, the koff in assay [1] came to 0.000294 s⁻¹; in assay [2], 0.000701 s⁻¹; in assay [3], 0.000585 s⁻¹; in assay [4], 0.00142 s⁻¹. The kon was 55200 M⁻¹ s⁻¹ in assay [1], 134000 M⁻¹ s⁻¹ in assay [2], 132000 M⁻¹ s⁻¹ in assay [3] and 220000 M⁻¹ s⁻¹ in assay [4].

B14: Ab49 (antibody, human IgG2, kappa, V domains shown)
VH: B1 VH
VL: B1 VL with T24R
notes: as for B1
For B14, the IC50 in the assay with 6His-Fc-FGFR1c was 4.67 nM; with 6His-Fc-FGFR4, 18.4 nM.

B15: Ab51 (antibody, human IgG2, kappa, V domains shown)
VH: B1 VH with Y104F
VL: B1 VL with T24R
notes: as for B1
With B15, the figures for the IC50 in the assay with 6His-Fc-FGFR1c and with 6His-Fc-FGFR4 were 3.86 nM and 21.1 nM, respectively.

B16: Ab41 (antibody, human IgG2, kappa, V domains shown)
VH: B1 VH with R102L, Y104F
VL: B1 VL with T24R
notes: as for B1
For B16, the IC50 with 6His-Fc-FGFR1c came out at 3.53 nM; with 6His-Fc-FGFR4 it was 9.87 nM.

B17: Ab40 (antibody, human IgG2, kappa, V domains shown)
VH: B1 VH with R102M, Y104L, P105T
VL: B1 VL with T24R
notes: as for B1
As to B17, the IC50 amounted to 4.85 nM with 6His-Fc-FGFR1c and 17.5 nM with 6His-Fc-FGFR4.

B18: Ab43 (antibody, human IgG2, kappa, V domains shown)
VH: B1 VH
VL: B1 VL with T24R
notes: as for B1
In the case of B18, the IC50 was 6.62 nM with 6His-Fc-FGFR1c and 10 nM with 6His-Fc-FGFR4.

B19: Vk12 combined with the VH of Ab15 (antibody, V domains shown)
VH: B1 VH with P105T
VL: B5 VL with V51L
notes: as for B2
For B19, the Kd in assay [1] is 6.51 nM; in assay [2], 6.38 nM; in assay [3] it was 7.01 nM; in assay [4], 9.76 nM. Also, the koff was 0.000345 s⁻¹ in assay [1], 0.000806 s⁻¹ in assay [2], 0.000925 s⁻¹ in assay [3] and 0.0021 s⁻¹ in assay [4]. Further, the kon in assay [1] was 53000 M⁻¹ s⁻¹; in assay [2], 126000 M⁻¹ s⁻¹; in assay [3], 132000 M⁻¹ s⁻¹; in assay [4], 215000 M⁻¹ s⁻¹.
